Experiments:
[1] = in vivo; cited from earlier work
PTH1R [2] = molecular target: T1, PTH1R (Rattus norvegicus, UniProt P25961); test: PTHrP dose response, cAMP induction in UMR-106 cells; assay type: cell-based; conditions: interpolated from curve fit, rounded
T1 construct: any cells that express PTH1R and allows the induction of cAMP signaling; host or cells: UMR-106 rat osteosarcoma cells
T1 sequence (P25961 27-591): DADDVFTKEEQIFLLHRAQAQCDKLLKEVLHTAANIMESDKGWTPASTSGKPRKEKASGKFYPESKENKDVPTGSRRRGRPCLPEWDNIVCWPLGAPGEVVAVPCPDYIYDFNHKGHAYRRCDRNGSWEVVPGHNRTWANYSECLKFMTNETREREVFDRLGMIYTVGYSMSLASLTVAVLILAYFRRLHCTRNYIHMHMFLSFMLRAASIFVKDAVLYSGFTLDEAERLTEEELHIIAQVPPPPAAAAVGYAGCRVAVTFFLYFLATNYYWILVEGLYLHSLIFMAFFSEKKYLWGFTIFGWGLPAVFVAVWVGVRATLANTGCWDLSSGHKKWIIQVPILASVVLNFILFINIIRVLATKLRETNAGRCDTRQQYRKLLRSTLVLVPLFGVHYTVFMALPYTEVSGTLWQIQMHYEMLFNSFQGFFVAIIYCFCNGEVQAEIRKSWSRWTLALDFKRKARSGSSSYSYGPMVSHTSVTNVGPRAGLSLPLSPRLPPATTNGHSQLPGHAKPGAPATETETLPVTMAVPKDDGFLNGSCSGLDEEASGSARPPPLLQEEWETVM
Method: (§1) UMR-106 cells are maintained in growth medium (UMR-GM, Dulbecco's Modified Eagle's Medium (DMEM) containing 10% Fetal Bovine Serum, 1% Pen-Strep (10 k units Penicillin—10 k ug/mL Streptomycin) and 1% L-glutamine) in 75-150 cm^2 tissue culture flasks until ready for use. Cells are split at a ratio between 1:4 and 1:20 when growth reaches ≥70% confluence for routing culture maintenance. Prior to initiating an assay, cells are plated in sub-culturing flasks (25 cm^2 to 150 cm^2) at a density of 10^6 cells/5 cm^2 (example 5e6 cells for T-75). The following day, flasks are starved with assay medium (UMR-Am, Phenol Red-Free DMEM, containing 1% Bovine Serum Albumin). The following day validation samples and antibody controls are pre-incubated with PTHrP for a minimum of 30 minutes. The validation samples and controls are adjusted such that the final assay concentration of serum is equal to the assay minimum required dilution of 1:4. Twenty microliters of samples and/or controls are placed on a MSD cAMP assay plate. […] Forty microliters of the cell suspension are added to the cAMP assay plate. […] One hundred microliters of 2×MSD Read Buffer T are then added to the plates and plates are read immediately on an MSD 6000 or S6000 Sector Imager. […]

PTH1R [3] = molecular target: T1, PTH1R; test: PTH dose response, cAMP induction in UMR-106 cells in 25% pooled human serum; assay type: cell-based; conditions: interpolated from curve fit, rounded
Method: as §1, with “PTH peptide” for “PTHrP”, “[…]” for “S6000”

## Abaloparatide: parathyroid hormone-related peptide (PTHrP) (1-34) analog which acts as a PTH1 receptor (PTH1R) agonist
[1]
  antibody-positive patients who developed neutralizing antibodies to Abaloparatide: 68%
  patients who developed anti-Abaloparatide antibodies: 49%
  patients who developed cross-reactivity to PTHrP: 2.3%
  patients who developed cross-reactivity to parathyroid hormone (PTH): 0%
  patients who developed neutralizing antibodies to PTHrP: 43%

## PTHrP: PTHrP (1-34)(Human, Rat, Mouse) peptide, Phoenix Pharmaceuticals P/N 056-04
PTH1R [2]
  EC20 of the PTHrP response: 0.728 ng/mL
  EC30 of the PTHrP response: 0.436 ng/mL

## PTH: Parathyroid Hormone Peptide (1-34)(Human), Phoenix Pharmaceuticals P/N 055-08
PTH1R [3]
  EC20 of the PTH response: 0.728 ng/mL
  EC30 of the PTH response: 0.436 ng/mL
